B1: Ribosomal RNA-processing protein 7 (Saccharomyces cerevisiae), P25368 (parent)
chain: MGIEDISAMKNGFIVVPFKLPDHKALPKSQEASLHFMFAKRHQSSNSNESDCLFLVNLPLLSNIEHMKKFVGQLCGKYDTVSHVEELLYNDEFGLHEVDLSALTSDLMSSTDVNEKRYTPRNTALLKFVDAASINNCWNALKKYSNLHAKHPNELFEWTYTTPSFTTFVNFYKPLDIDYLKEDIHTHMAIFEQREAQAQEDVQSSIVDEDGFTLVVGKNTKSLNSIRKKILNKNPLSKHENKAKPISNIDKKAKKDFYRFQVRERKKQEINQLLSKFKEDQERIKVMKAKRKFNPYT
partner: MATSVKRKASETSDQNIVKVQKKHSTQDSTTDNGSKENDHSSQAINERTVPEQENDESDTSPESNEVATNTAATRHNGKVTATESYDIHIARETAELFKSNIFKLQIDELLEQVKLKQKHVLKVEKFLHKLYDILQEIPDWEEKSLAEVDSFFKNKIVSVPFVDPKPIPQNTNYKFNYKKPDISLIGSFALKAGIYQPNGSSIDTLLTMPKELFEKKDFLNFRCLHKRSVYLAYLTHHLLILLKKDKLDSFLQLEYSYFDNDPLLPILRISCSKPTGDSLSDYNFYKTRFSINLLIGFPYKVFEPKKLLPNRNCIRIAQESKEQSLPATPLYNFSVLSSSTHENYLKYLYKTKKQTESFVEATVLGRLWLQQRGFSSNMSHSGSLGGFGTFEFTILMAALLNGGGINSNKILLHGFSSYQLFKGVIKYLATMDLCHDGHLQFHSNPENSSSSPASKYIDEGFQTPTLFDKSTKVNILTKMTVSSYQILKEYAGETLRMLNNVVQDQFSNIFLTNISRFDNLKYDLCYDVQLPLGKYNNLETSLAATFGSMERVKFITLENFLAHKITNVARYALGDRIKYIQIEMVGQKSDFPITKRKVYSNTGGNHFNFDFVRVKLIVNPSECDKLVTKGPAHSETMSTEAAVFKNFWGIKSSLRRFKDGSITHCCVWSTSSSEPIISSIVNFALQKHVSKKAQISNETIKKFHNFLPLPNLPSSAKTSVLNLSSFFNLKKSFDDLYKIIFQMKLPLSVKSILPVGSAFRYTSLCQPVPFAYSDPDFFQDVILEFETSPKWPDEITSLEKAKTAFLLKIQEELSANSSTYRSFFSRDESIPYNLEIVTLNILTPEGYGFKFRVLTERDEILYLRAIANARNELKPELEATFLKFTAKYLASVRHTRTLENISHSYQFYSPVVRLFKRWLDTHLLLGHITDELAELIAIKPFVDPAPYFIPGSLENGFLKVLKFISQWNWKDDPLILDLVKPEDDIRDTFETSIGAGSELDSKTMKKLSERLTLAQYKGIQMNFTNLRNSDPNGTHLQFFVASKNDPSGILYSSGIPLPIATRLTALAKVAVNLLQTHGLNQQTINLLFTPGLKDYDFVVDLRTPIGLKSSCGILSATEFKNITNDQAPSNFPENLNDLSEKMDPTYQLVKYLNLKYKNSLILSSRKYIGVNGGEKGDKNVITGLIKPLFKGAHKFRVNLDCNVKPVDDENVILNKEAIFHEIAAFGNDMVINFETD

Variants of: B1
Details: with utp22_yeast UTP22, P53254

Row | effect of a mutation on the interaction | Variant
1 | disrupting interaction strength | MGIEDISAMKNGFIVVPFKLPDHKALPKSQEASLHFMDAKRHQSSNSNESDCLFLVNLPLLSNIEHMKKFVGQLCGKYDTVSHVEELLYNDEFGLHEVDLSALTSDLMSSTDVNEKRYTPRNTALLKFVDAASINNCWNALKKYSNLHAKHPNELFEWTYTTPSFTTFVNFYKPLDIDYLKEDIHTHMAIFEQREAQAQEDVQSSIVDEDGFTLVVGKNTKSLNSIRKKILNKNPLSKHENKAKPISNIDKKAKKDFYRFQVRERKKQEINQLLSKFKEDQERIKVMKAKRKFNPYT [F38D]
